Laboratory results reported in paper PMC4670726 (2015).

B1: JIP1, full length, YFP fragment F1 fusion (BiFC) [not stated] / F2-JNK1 (K55R) (BiFC) [human] (parent complex)
chain 1: MAERESGGLGGGAASPPAASPFLGLHIASPPNFRLTHDISLEEFEDEDLSEITDECGISLQCKDTLSLRPPRAGLLSAGGGGAGSRLQAEMLQMDLIDATGDTPGAEDDEEDDDEERAARRPGAGPPKAESGQEPASRGQGQSQGQSQGPGSGDTYRPKRPTTLNLFPQVPRSQDTLNNNSLGKKHSWQDRVSRSSSPLKTGEQTPPHEHICLSDELPPQSGPAPTTDRGTSTDSPCRRSTATQMAPPGGPPAAPPGGRGHSHRDRIHYQADVRLEATEEIYLTPVQRPPDAAEPTSAFLPPTESRMSVSSDPDPAAYPSTAGRPHPSISEEEEGFDCLSSPERAEPPGGGWRGSLGEPPPPPRASLSSDTSALSYDSVKYTLVVDEHAQLELVSLRPCFGDYSDESDSATVYDNCASVSSPYESAIGEEYEEAPRPQPPACLSEDSTPDEPDVHFSKKFLNVFMSGRSRSSSAESFGLFSCIINGEEQEQTHRAIFRFVPRHEDELELEVDDPLLVELQAEDYWYEAYNMRTGARGVFPAYYAIEVTKEPEHMAALAKNSDWVDQFRVKFLGSVQVPYHKGNDVLCAAMQKIATTRRLTVHFNPPSSCVLEISVRGVKIGVKADDSQEAKGNKCSHFFQLKNISFCGYHPKNNKYFGFITKHPADHRFACHVFVSEDSTKALAESVGRAFQQFYKQFVEYTCPTEDIYLE
chain 2: MSRSKRDNNFYSVEIGDSTFTVLKRYQNLKPIGSGAQGIVCAAYDAILERNVAIRKLSRPFQNQTHAKRAYRELVLMKCVNHKNIIGLLNVFTPQKSLEEFQDVYIVMELMDANLCQVIQMELDHERMSYLLYQMLCGIKHLHSAGIIHRDLKPSNIVVKSDCTLKILDFGLARTAGTSFMMTPYVVTRYYRAPEVILGMGYKENVDLWSVGCIMGEMVCHKILFPGRDYIDQWNKVIEQLGTPCPEFMKKLQPTVRTYVENRPKYAGYSFEKLFPDVLFPADSEHNKLKASQARDLLSKMLVIDASKRISVDEALQHPYINVWYDPSEAEAPPPKIPDKQLDEREHTIEEWKELIYKEVMDLEERTKNGVIRGQPSPLGAAVINGSQHPSSSSSVNDVSSMSTDPTLASDTDSSLEAAAGPLGCCR

Variants of: B1
Assay: BiFC (bimolecular fragment complementation), fluorescence measurement on co-transfected HEK293 cell populations; live HEK293 cells, transient co-transfection, N = 6; read off a plot

response	Variant
~1700 arbitrary units	chain 1 R160A, chain 1 P161A, chain 1 L164A, chain 1 L166A
